Kd and fold lower binding affinity than the unlabeled BTP-7 data for three molecules are collected here from patent publication US20210353708A1.

Where no end group is shown, it is not given here. [ ]: non-standard residue; d: D form.

A word on the Kd: it is the constant that tells how readily two partners part at equilibrium.

Assay [1] deals with recombinant BΔg protein (recombinant human brevican, enzymatically deglycosylated, His-tagged) (human) (UniProt Q96GW7). Description: BLI (Octet RED), His-tagged BΔg on Ni-NTA sensors, peptide in solution, steady state analysis.
Chain of recombinant BΔg protein (recombinant human brevican, enzymatically deglycosylated, His-tagged) (human) (Q96GW7 23-911, stated change not applied, form in doubt): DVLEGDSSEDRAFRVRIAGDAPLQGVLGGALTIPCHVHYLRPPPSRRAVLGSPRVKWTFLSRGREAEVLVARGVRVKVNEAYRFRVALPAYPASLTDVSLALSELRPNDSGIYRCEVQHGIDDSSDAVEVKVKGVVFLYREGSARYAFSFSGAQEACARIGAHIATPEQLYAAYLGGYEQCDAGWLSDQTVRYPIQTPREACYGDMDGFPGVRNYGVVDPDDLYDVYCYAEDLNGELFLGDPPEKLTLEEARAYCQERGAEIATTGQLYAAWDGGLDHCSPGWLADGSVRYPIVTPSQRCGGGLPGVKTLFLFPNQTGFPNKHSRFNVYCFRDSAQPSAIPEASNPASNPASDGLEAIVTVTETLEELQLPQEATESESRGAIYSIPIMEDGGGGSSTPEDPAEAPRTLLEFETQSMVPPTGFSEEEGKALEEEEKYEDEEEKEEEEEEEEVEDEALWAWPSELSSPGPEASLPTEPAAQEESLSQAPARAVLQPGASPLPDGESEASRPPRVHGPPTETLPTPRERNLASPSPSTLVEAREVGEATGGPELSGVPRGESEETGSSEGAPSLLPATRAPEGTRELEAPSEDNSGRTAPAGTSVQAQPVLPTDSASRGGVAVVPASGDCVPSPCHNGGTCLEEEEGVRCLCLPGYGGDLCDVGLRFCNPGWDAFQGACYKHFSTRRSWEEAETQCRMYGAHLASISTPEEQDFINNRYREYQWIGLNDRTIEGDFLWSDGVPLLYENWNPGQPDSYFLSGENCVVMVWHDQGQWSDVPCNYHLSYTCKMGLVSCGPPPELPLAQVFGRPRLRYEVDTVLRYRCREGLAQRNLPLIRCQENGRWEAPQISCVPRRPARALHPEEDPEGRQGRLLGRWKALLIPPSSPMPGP
Assay [2] shares this target. As to the kind of experiment: BLI (Octet RED), steady state analysis. (BLI is a label-free optical method that tracks binding on a fibre tip over time.)

B1: BTP-8, not labeled with a fluorophore (peptide)
peptide: [dT][dI][dR][dK][dL][dV][dR][dH]-NH2
modifications: N-terminus assumed
SMILES: CC[C@@H](C)[C@@H](NC(=O)[C@H](N)[C@H](C)O)C(=O)N[C@H](CCCNC(=N)N)C(=O)N[C@H](CCCCN)C(=O)N[C@H](CC(C)C)C(=O)N[C@@H](C(=O)N[C@H](CCCNC(=N)N)C(=O)N[C@H](Cc1c[nH]cn1)C(N)=O)C(C)C
As for B1, in assay [1], the dissociation constant Kd was 1570 nM.

B2: BTP-7 conjugated to a fluorescein dye (peptide)
peptide: [dT][dK][dW]G[dH][dV][dN][dK]
modifications: not fully specified (C-terminus); also: FITC on side chain of C-terminal Lys: own Lys8 or an added Lys, not given here
Consider B2, for which the fold lower binding affinity than the unlabeled BTP-7 in assay [2] was more than 10 fold. In addition, the equilibrium dissociation constant (Kd) in assay [1] was found to be 3800 nM.

B3: BTP-9, not labeled with a fluorophore (peptide)
peptide: [dA][dD][dR][dR][dQ][dR][dA][dI]-NH2
modifications: N-terminus assumed
SMILES: CC[C@@H](C)[C@@H](NC(=O)[C@@H](C)NC(=O)[C@@H](CCCNC(=N)N)NC(=O)[C@@H](CCC(N)=O)NC(=O)[C@@H](CCCNC(=N)N)NC(=O)[C@@H](CCCNC(=N)N)NC(=O)[C@@H](CC(=O)O)NC(=O)[C@@H](C)N)C(N)=O
In the case of B3, the equilibrium dissociation constant (Kd) in assay [1] is 1500 nM.
